Test results reported in patent US20240209061A1, “FUSION PROTEINS AND USES THEREOF” (Pfizer Inc., priority 2020, published 2024).

What was measured:
[1] = AC-SINS self-interaction assay; type: physicochemical; conditions: Table 6
Description: Variant CD80-Fc fusion proteins were assessed by measuring non-specific binding using a DNA- and insulin-binding ELISA (Avery et al., MAbs. 2018 February/March; 10(2): 244-255) and for self-interaction in an AC-SINS assay (affinity-capture self-interaction nanoparticle spectroscopy; Liu et al., 2014, mAbs 6:483-92). DNA- and insulin-binding scores were calculated as the signal ratio of the ELISA signal of the CD80-Fc fusion protein at 10 μg/ml to the ELISA signal in the absence of the Fc-fusion protein (buffer only). For the AC-SINS assay, proteins are captured by anti-human Fc antibodies coated on gold nanoparticles. […] The score ranges obtained from these in vitro assays correlate well with in vivo clearance using huFcRn transgenic (Tg32) mouse. Therapeutic proteins with high scores are at high risk for rapid clearance and unfavorable PK and therapeutics that score low are at low risk and favorable PK.

[2] = Thermal stability by Differential Scanning calorimetry (DSC); type: physicochemical; conditions: PBS
Description: There is a correlation between the thermal stability of a protein with the overall stability of the protein. Enhanced thermal stability often provides improved manufacturability and longer shelf life/stability. Thermal stability of variant CD80-Fc fusion proteins was assessed by Differential Scanning calorimetry (DSC). Variant CD80-Fc fusion proteins were analyzed using a MicroCal VP-DSC instrument. […] Tables 8-10 show the first thermal transition temperature (Tm1) of CD80-Fc fusion proteins and the enhanced thermal stability of variant CD80-Fc fusion proteins compared to CD80-WT-Fc fusion proteins.

[3] = test system: peripheral blood mononuclear cells (PBMC); assay: RESTORE cytokine release assay in absence of TCR stimulation; type: cell-based, human; parameters: IFNγ: unit not given beside the values
Description: The ability of variant CD80-Fc fusion proteins to promote cytokine release in the absence of TCR stimulation was assessed in the RESTORE (RESetting T cells to Original Reactivity) assay (Römer et al, Blood, 2011). Freshly isolated peripheral blood mononuclear cells (PBMC) from whole blood of several healthy donors were cultured for 48 hours at […] within RPMI1640 media supplemented with 10% autologous plasma, 10 mM HEPES, 1× GlutaMAX, 1× PenStrep, beta2-mercaptoethanol, NEAA and sodium pyruvate. Following the 48-hour incubation, PBMC were pelleted and resuspended at a final concentration of 10^6/ml with indicated soluble drug. Treatment was allowed for 48 hours then supernatant was harvested and assessed in IL-2 and IFNγ ELISA according to manufacturer's protocol (BioLegend).
Positive controls included CD28 superagonist anti-CD28 clone TGN1412 as IgG1 and IgG4 isotypes and anti-CD3. […] Values shown are the average of 3 technical replicates. D=Donor.

[4] = Pharmacokinetics in huFcRn transgenic mice; conditions: 0.1 mg/kg IV
Description: PK of CD80-Fc fusion proteins was also assessed in transgenic mice expressing the human neonatal Fc receptor (huFcRn) a-chain transgene under the control of its natural human promoter. Female mice were dosed intravenously with CD80-Fc fusion proteins at 0.1 mg/kg, and blood was collected at the timepoints indicated on the graph. Levels of CD80-Fc in mouse plasma were measured as described above.

For “CD80-K89Q-D90Q-E23C-A26C-Fc: disulfide stabilized variant CD80-Fc fusion protein (K89Q, D90Q, E23C, A26C)”, the “AC-SINS Score” value [1] was −1, the “DSC Tm1” value [2] was 67.28 ± 0.2 °C and the IFNγ ([3]; Table 20, D222, 1 μg/ml) was 7.3. It also gave an IFNγ ([3]; Table 20, D222, 10 μg/ml) of 4.3, an IL-2 ([3]; Table 20, D222, 10 μg/ml) of 6.7 and an IFNγ ([3]; Table 20, D281, 1 μg/ml) of 3.0. It also gave an IL-2 ([3]; Table 20, D281, 1 μg/ml) of 2.7, an IFNγ ([3]; Table 20, D281, 10 μg/ml) of 3.7 and an IL-2 ([3]; Table 20, D281, 10 μg/ml) of 5.7. The IFNγ ([3]; Table 20, D462, 1 μg/ml) was 7.0, the IL-2 ([3]; Table 20, D462, 1 μg/ml) was 2.0 and the IFNγ ([3]; Table 20, D462, 10 μg/ml) was 7.3. It also gave an IL-2 ([3]; Table 20, D462, 10 μg/ml) of 3.0, an IFNγ ([3]; Table 20, D547, 1 μg/ml) of 4.3 and an IL-2 ([3]; Table 20, D547, 1 μg/ml) of 13.3. The IFNγ ([3]; Table 20, D547, 10 μg/ml) was 3.0, the IL-2 ([3]; Table 21, D132, 1.9 μg/ml) was 0.0 and the IL-2 ([3]; Table 21, D132, 5.6 μg/ml) was 0.0. The IL-2 ([3]; Table 21, D132, 16.7 μg/ml) was 0.3, the IL-2 ([3]; Table 21, D149, 1.9 μg/ml) was 0.0 and the IL-2 ([3]; Table 21, D149, 5.6 μg/ml) was 0.0. It also gave an IL-2 ([3]; Table 21, D149, 16.7 μg/ml) of 0.0, an IL-2 ([3]; Table 21, D149, 50 μg/ml) of 0.0 and an IL-2 ([3]; Table 21, D379, 1.9 μg/ml) of 29.0. The IL-2 ([3]; Table 21, D379, 5.6 μg/ml) was 2.3, the IL-2 ([3]; Table 21, D379, 16.7 μg/ml) was 0.0 and the IL-2 ([3]; Table 21, D379, 50 μg/ml) was 0.0. It also gave an IL-2 ([3]; Table 21, D399, 1.9 μg/ml) of 0.0, an IL-2 ([3]; Table 21, D399, 5.6 μg/ml) of 2.0 and an IL-2 ([3]; Table 21, D399, 16.7 μg/ml) of 0.0. The IL-2 ([3]; Table 21, D399, 50 μg/ml) was 0.0, the IL-2 ([3]; Table 21, D417, 1.9 μg/ml) was 3.0 and the IL-2 ([3]; Table 21, D417, 5.6 μg/ml) was 0.0. The IL-2 ([3]; Table 21, D417, 16.7 μg/ml) was 0.3, the IL-2 ([3]; Table 21, D417, 50 μg/ml) was 0.0 and the IL-2 ([3]; Table 21, D518, 1.9 μg/ml) was 0.0. The IL-2 ([3]; Table 21, D518, 5.6 μg/ml) was 2.0, the IL-2 ([3]; Table 21, D518, 16.7 μg/ml) was 1.7 and the IL-2 ([3]; Table 21, D518, 50 μg/ml) was 2.7. It also gave an IFNγ ([3]; Table 22, D132, 1.9 μg/ml) of 0.0, an IFNγ ([3]; Table 22, D132, 5.6 μg/ml) of 78.0 and an IFNγ ([3]; Table 22, D132, 16.7 μg/ml) of 0.0. For the same substance, the IFNγ ([3]; Table 22, D132, 50 μg/ml) was 0.0, the IFNγ ([3]; Table 22, D149, 1.9 μg/ml) was 0.0 and the IFNγ ([3]; Table 22, D149, 5.6 μg/ml) was 0.0. It also gave an IFNγ ([3]; Table 22, D149, 16.7 μg/ml) of 0.0, an IFNγ ([3]; Table 22, D149, 50 μg/ml) of 41.3 and an IFNγ ([3]; Table 22, D379, 1.9 μg/ml) of 0.0. It also gave an IFNγ ([3]; Table 22, D379, 5.6 μg/ml) of 0.0, an IFNγ ([3]; Table 22, D379, 16.7 μg/ml) of 0.0 and an IFNγ ([3]; Table 22, D379, 50 μg/ml) of 0.0. For the same substance, the IFNγ ([3]; Table 22, D399, 1.9 μg/ml) was 0.0, the IFNγ ([3]; Table 22, D399, 5.6 μg/ml) was 0.0 and the IFNγ ([3]; Table 22, D399, 16.7 μg/ml) was 0.0. It also gave an IFNγ ([3]; Table 22, D399, 50 μg/ml) of 4.3, an IFNγ ([3]; Table 22, D417, 1.9 μg/ml) of 0.0 and an IFNγ ([3]; Table 22, D417, 5.6 μg/ml) of 0.0. For the same substance, the IFNγ ([3]; Table 22, D417, 16.7 μg/ml) was 0.0, the IFNγ ([3]; Table 22, D417, 50 μg/ml) was 0.0 and the IFNγ ([3]; Table 22, D518, 1.9 μg/ml) was 0.0. For the same substance, the IFNγ ([3]; Table 22, D518, 5.6 μg/ml) was 0.0, the IFNγ ([3]; Table 22, D518, 16.7 μg/ml) was 20.7 and the IFNγ ([3]; Table 22, D518, 50 μg/ml) was 0.0. The AUC [4] was 182 µg·h/mL, the CL [4] was 8.6 mL/day/kg and the T1/2 [4] was 211 h. For the same substance, the Vdss [4] was 0.109 L/kg and the Cmax ([4]; average of 3 animals) was 2200 ng/mL.
